The record followed here is patent US20090005257A1 (published 2009).

Changes are numbered by the printed parent chain. Names and notes keep the numbering of the source.

What is called IC50 is the concentration that gives 50% inhibition. Lower therefore signals greater potency in that assay.

B1: TAR2-10-27 (other)
VH: EVQLLESGGGLVQPGGSLRLSCAASGFTFEWYWMGWVRQAPGKGLEWVSAISGSGGSTYYADSVKGRFTISRDNSKNTLYLQMNSLRAEDAAVYYCAKVKLGGGPNFGYRGQGTLVTVSS
notes: Human VH3 single domain (dAb) against human TNFR1, tested as soluble protein purified on protein A beads
B2: TAR2-10-27-F27D (other)
VH: B1 VH with F27D
notes: Soluble dAb
B3: DP47 F27D/F29V (other, name in Kabat numbering)
VH: EVQLLESGGGLVQPGGSLRLSCAASGDTVSSYAMSWVRQAPGKGLEWVSAISGSGGSTYYADSVKGRFTISRDNSKNTLYLQMNSLRAEDTAVYYCAKSYGAFDYWGQGTLVTVSS
B4: DP47 S53P/G54D (other, name in Kabat numbering)
VH: B3 VH with D27F, V29F, S54P, G55D
B5: DP47 S30N/A33D (other, name in Kabat numbering)
VH: B3 VH with D27F, V29F, S30N, A33D
notes: also called A33D/S30N
B6: DP47 F27D/F29V/Y32D/S35G (other, name in Kabat numbering)
VH: B3 VH with Y32D, S35G
notes: kept apart as printed
B7: pA-C36 (other)
VH: EVQLLESGGGLVQPGGSLRLSCAASGVNVSHDSMTWVRQAPGKGLEWVSAIRGPNGSTYYADSVKGRFTISRDNSKNTLYLQMNSLRAEDTAVYYCASGARHADTERPPSQQTMPFWGQGTLVTVSS
notes: Frameworks of DP47d, ranges as for HEL4; also called pA-36
B8: anti-HSA VH clone #1 (other)
VH: EVQLLESGGGLVQPGGSLRLSCAASGFTFDLYDMSWVRQAPGKGLEWVSSIVNSGVRTYYADSVKGRFTISRDNSKNTLYLQMNSLRAEDTAVYYCAKLNQSYHWDFDYWGQGTLVTVSS
notes: From library 4G (human VH3, DP47 germline gene + JH4 segment)
B9: anti-HSA VH clone #6 (other)
VH: EVQLLESGGGLVQPGGSLRLSCAASGFTFHRYSMSWVRQAPGKGLEWVSTILPGGDVTYYADSVKGRFTISRDNSKNTLYLQMNSLRAEDTAVYYCAKQTPDYMFDYWGQGTLVTVSS
notes: As clone #1
B10: anti-HSA VH clone #4 (other)
VH: B9 VH with H30Y, R31D, S33N, L52T, P53H, G54T, D56G, T100N, D102S, M104Q
notes: As clone #1
B11: anti-HSA VH clone #10 (other)
VH: B9 VH with H30D, R31E, S33N, G54H, V57R, T100D, D102L, M104R
notes: As clone #1; the one clone recovered with the heat step
B12: anti-HSA VH clone #3 (other)
VH: EVQLLESGGGLVQPGGSLRLSCAASGFTFSKYWMSWVRQAPGKGLEWVSSIDFMGPHTYYADSVKGRFTISRDNSKNTLYLQMNSLRAEDTAVYYCAKGRTSMLPMKGKFDYWGQGTLVTVSS
notes: As clone #1
B13: TAR1-5-19-Y49N (other)
VL: DIQMTQSPSSLSASVGDRVTITCRASQSIDSYLHWYQQKPGKAPKLLINSASELQSGVPSRFSGSGSGTDFTLTISSLQPEDFATYYCQQVVWRPFTFGQGTKVEIKR
B14: TAR1-5-19-Y49D (other)
VL: B13 VL with N49D
B15: TAR1-5-19 (other)
VL: B13 VL with N49Y
notes: Vκ1 single domain (dAb) specific for TNF-α; also called PEP1-5-19
B16: anti-HSA VH clone #7 (other)
VH: EVQLLESGGGLVQPGGSLRLSCAASGFTFWKYNMAWVRQAPGKGLEWVSTILGEGNNTYYADSVKGRFTISRDNSKNTLYLQMNSLRAEDTAVYYCAKTMDYKFDYWGQGTLVTVSS
notes: As clone #1
B17: anti-HSA VH clone #2 (other)
VH: EVQLLESGGGLVQPGGSLRLSCAASGFTFSDYRMSWVRQAPGKGLEWVSTIISNGKFTYYADSVKGRFTISRDNSKNTLYLQMNSLRAEDTAVYYCAKQDWMYMFDYWGQGTLVTVSS
notes: As clone #1
B18: pA-C59 (other)
VH: EVQLLESGGGLVQPGGSLRLSCAASGDSISDDYMAWVRQAPGKGLEWVSSIDDKNGSTYYADSVKGRFTISRDNSKNTLYLQMNSLRAEDTAVYYCAGGDGQAHKVDYWGQGTLVTVSS
notes: Frameworks of DP47d, ranges as for HEL4
B19: pA-C47 (other)
VH: EVQLLESGGGLVQPGGSLRLSCAASGYNITDENMAWVRQAPGKGLEWVSTIAADNGSTYYADSVKGRFTISRDNSKNTLYLQMNSLRAEDTAVYYCATTEAAGVEEDNVRSWGQGTLVTVSS
notes: as for B18
B20: pA-C76 (other)
VH: EVQLLESGGGLVQPGGSLRLSCAASGDNVISDDMSWVRQAPGKGLEWVSTINGPSGSTYYADSVKGRFTISRDNSKNTLYLQMNSLRAEDTAVYYCAANGEDTDMLDMWGDRSAALKSWGQGTLVTVSS
notes: as for B18
B21: DP47 quadruple mutant F27D/F29V/S35G/Y32E (other, name in Kabat numbering)
VH: B3 VH with Y32E, S35G
B22: pA-C13 (other)
VH: EVQLLESGGGLVQPGGSLRLSCAASGDMVNDKDMSWVRQAPGKGLEWVSSISTENGSTYYADSVKGRFTISRDNSKNTLYLQMNSLRAEDTAVYYCAGVRDEVAMGENPDLSYWGQGTLVTVSS
notes: From the library made by diversifying the CDR loops of DP47d; frameworks of DP47d, ranges as for HEL4; also called Clone 13
B23: TAR2-10-27-Y32D (other)
VH: B1 VH with Y32D

T3 sequence (P02768 25-609 limits assumed): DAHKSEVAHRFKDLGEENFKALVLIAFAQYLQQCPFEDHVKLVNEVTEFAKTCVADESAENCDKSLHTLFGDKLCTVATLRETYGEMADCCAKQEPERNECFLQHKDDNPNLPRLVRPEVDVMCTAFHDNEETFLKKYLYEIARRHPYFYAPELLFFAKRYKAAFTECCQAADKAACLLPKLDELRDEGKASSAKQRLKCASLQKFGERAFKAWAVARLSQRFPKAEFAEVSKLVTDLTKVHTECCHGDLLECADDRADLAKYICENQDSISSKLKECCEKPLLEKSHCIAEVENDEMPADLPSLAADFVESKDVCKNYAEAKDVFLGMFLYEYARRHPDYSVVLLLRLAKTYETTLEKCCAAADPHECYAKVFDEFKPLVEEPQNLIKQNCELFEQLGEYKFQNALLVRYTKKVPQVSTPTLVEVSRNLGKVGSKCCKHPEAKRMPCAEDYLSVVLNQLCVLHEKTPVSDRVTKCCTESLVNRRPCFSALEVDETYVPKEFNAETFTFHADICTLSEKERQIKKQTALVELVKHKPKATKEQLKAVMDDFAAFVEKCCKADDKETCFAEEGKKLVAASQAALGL

In one assay the target is T1, TNF receptor 1 Fc fusion protein (human, UniProt P19438 30-211).
T1 construct: Bought; also called recombinant TNF receptor 1 (p55); human Tumor Necrosis Factor Receptor 1; not shown: Fc part of the bought fusion protein (captured by an anti-human Fc antibody)
T1 sequence (looked up): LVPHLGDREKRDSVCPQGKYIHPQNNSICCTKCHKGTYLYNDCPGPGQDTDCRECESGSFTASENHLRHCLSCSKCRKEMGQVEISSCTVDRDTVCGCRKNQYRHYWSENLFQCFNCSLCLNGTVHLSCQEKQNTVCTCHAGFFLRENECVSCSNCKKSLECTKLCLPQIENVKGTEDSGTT
Put plainly: receptor binding ELISA: dAb mixed with TNF (10 ng/ml) and added to TNFR1-Fc captured by anti-human Fc; bound TNF detected with biotinylated anti-TNF antibody; blocked ligand TNF. A general note: ELISA stands for enzyme-linked immunosorbent assay.
As for B1, the “IC50 (read off the curve)” value is around 5 nM.

Consider B2, for which the “IC50 (read off the curve)” value was around 6 nM.

The next assay has as its target T2, protein A (UniProt P38507 37-477).
T2 construct: also called pA
Put plainly: phage ELISA on protein A, heated 80 C against unheated, three data points.
Experimental: (§1) After biotinylation of the phage, for each clone, a 100 μl sample of phage was transferred to a thin-wall PCR tube (and the remaining biotinylated phage was kept on ice). The tube was placed in a PCR apparatus for incubation at 80° C. during 10 min (temperature of cover lid: 85° C.). After heating, the tube was rapidly cooled down to 4° C. in the PCR apparatus.
(§2) ELISA plates were coated and blocked as described in Section 4. The samples were transferred to the empty wells of coated/blocked ELISA plates, and incubated for 2 hours at room temperature. Unbound phage was then removed by washing the wells 6-ties with PBS. For detection, Str-HRP (from a 1 mg/ml stock in PBS) were diluted 1/2000 in PBS supplemented with 2% v/v TWEEN 20 (Polyoxyethylensorbitan monolaurate; for protein A-based ELISA) or 2% w/v BSA (for protein L-based ELISA), and 100 μl of the resulting solution was added to each ELISA well. After incubation for 1 hour at room temperature, the unbound conjugate was removed by washing the wells 6-times with PBS. For colorimetric reaction, a 10 mg/ml solution of TMB (tetramethylbenzidine) was diluted 100-fold in a buffer of 0.1 M sodium acetate, pH 6.0. Next, hydrogen peroxyde was added (0.4 ul per ml of buffer/TMB, and 100 ul of this solution was added to each ELISA well. After color (blue) developed, the reaction was stopped by adding 50 μl of 1 M sulfuric acid per well (color turns to yellow). The optical density was recorded at 450 nm.
These clones were characterized for refoldability on phage (according to the protocol of Section 5, but with three data points being taken) and in solution.
Turning to B3, the “Refoldability on phage (protein A binding retained after heating)” value (from here on “Refoldability on phage”) came to 62%.

Regarding B4, the “Refoldability on phage” value is 19%.

B5: the “Refoldability on phage” value is 81%.

B6: the “Refoldability on phage” value is 80%.

On to B7, for which the “Refoldability on phage” value was found to be 80%.

The next assay addresses T3, human serum albumin (human, UniProt P02768 25-609).
T3 construct: also called HSA
Put plainly: phage ELISA on HSA, heated 80 C 10 min against unheated.
Experimental: (§3) A phage ELISA was performed according to the protocol of Section 5 with the following modifications. 1×10¹⁰ phage were either heat-treated (10 minutes at 80° C. in 100 μL aliquots) or left untreated. The samples were centrifuged for 10 minutes at 14,000 rpm at 4° C. and the supernatants were added to ELISA wells coated with HSA (with a dilution series of ⅓). After developing the ELISA, the OD450 nm values (y-axis) for each heat treated/unheated phage pair were plotted against the phage number α-axis) and the %-refoldability was calculated.
On to B8, for which the “Refoldability (HSA binding retained after heating)” value was determined as 1.5%.

On to B9, for which the “Refoldability (HSA binding retained after heating)” value is below 0.2%.

As to B10, the “Refoldability (HSA binding retained after heating)” value was determined as 9.1%.

In the case of B11, the “Refoldability (HSA binding retained after heating)” value is around 100%.

Regarding B12, the “Refoldability (HSA binding retained after heating)” value was determined as 0.55%.

Another assay deals with T4, TNF-α (UniProt P01375 77-233).
T4 construct: also called tumour necrosis factor
T4 sequence (P01375 77-233 limits assumed): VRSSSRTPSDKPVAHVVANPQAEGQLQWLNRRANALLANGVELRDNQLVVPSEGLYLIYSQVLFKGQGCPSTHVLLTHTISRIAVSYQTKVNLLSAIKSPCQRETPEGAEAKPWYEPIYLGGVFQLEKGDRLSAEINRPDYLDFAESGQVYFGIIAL
Put plainly: RBA-ELISA.
Take B13: the “fold reduction of binding against TAR1-5-19” value lay within 6 to 20 fold.

With B14, the “fold reduction of binding against TAR1-5-19” value was 6 to 20 fold.

For another assay, the target named is T4, TNF-α. The assay is described as follows: phage ELISA on TNF-α coated wells, heated 80 C 10 min against unheated.
For the molecule B15, the “% refolding (TNF-α binding retained after heating)” value amounted to 80%.

Take B13: the “% refolding (TNF-α binding retained after heating)” value is 98%.

B14: the “% refolding (TNF-α binding retained after heating)” value is 93%.

Another assay concerns the target T4, TNF-α. Put plainly: RBA-ELISA: dAb competes with binding of soluble TNF-α to immobilised TNF-α receptor.
For the molecule B15, the concentration for half-maximal inhibition (IC50) is 30 nM.

Molecule B13 registered an IC50 of 900 nM.

The molecule B14 had an IC50 of 200 nM.

The target in another assay is T3, human serum albumin. Put plainly: phage ELISA on HSA, heated against unheated.
Experimental: The ELISA wells were coated overnight at 4° C. with one of the following ligands: 10 μg/ml of protein A in PBS, 10 μg/ml of mAb 9E10 in PBS, or 3 mg/ml of HEL in 0.1 M NaHCO₃ buffer, pH 9.6. After blocking the wells with PBS containing 2% Tween-20 (PBST), a dilution series of phage in PBST was incubated for 2 h. After washing with PBS, bound phage were detected as follows. In assays for binding to REL, phage was detected directly using a conjugate of horseradish peroxidase with an anti-M13 monoclonal antibody (Amersham) using 3,3′,5,5′-tetramethylbenzidine as substrate. In assays for binding to protein A, the phage (4×10¹⁰ TU/ml in PBS) was first biotinylated at 4° C. with biotin-NHS (Perbio) (50 μM final concentration) and detected by sequential addition of streptavidin-horseradish peroxidase conjugate (1 μg/ml) (Sigma-Aldrich) in PBST, and substrate as above. In assays for binding to human serum albumin (USA) (Sigma, coating at 10 μg/ml in PBS), the ELISA was performed in PBS supplemented with 2% skim-milk powder (PBSM) and bound phage were detected in two steps using a rabbit anti-fd bacteriophage monoclonal antibody (Sigma, 1/1000 dilution) and goat anti-rabbit IgG serum conjugated with horseradish peroxidase (Sigma, 1/1000 dilution) and substrate as above.
On to B16, for which the “% HSA binding signal retained after heating” value (“% HSA binding signal retained” for short) was below 10%.

As for B8, the “% HSA binding signal retained” value is below 10%.

Turning to B9, the “% HSA binding signal retained” value was below 10%.

In the case of B17, the “% HSA binding signal retained” value was below 10%.

Regarding B10, the “% HSA binding signal retained” value is below 10%.

Take B12: the “% HSA binding signal retained” value is below 10%.

The next assay concerns the target T2, protein A. The assay is described as follows: phage ELISA on protein A, heated 80 C against unheated, titration (Section 5).
Experimental: as §1, §2
Turning to B18, the “% refolding (protein A binding retained after heating)” value amounted to 25%.

For B19, the “% refolding (protein A binding retained after heating)” value came to 25%.

With B20, the “% refolding (protein A binding retained after heating)” value turned out to be 35%.

For B5, the “% refolding (protein A binding retained after heating)” value stood at 2.11%.

B21: the “% refolding (protein A binding retained after heating)” value came to 29.5%.

B22: the “% refolding (protein A binding retained after heating)” value stood at 35%.

Turning to B7, the “% refolding (protein A binding retained after heating)” value turned out to be 25%.

The target of the next assay is T5, human Tumor Necrosis Factor Receptor 1 (TNFR1) expressed on HeLa cells (human, UniProt P19438 30-455).
T5 sequence (looked up): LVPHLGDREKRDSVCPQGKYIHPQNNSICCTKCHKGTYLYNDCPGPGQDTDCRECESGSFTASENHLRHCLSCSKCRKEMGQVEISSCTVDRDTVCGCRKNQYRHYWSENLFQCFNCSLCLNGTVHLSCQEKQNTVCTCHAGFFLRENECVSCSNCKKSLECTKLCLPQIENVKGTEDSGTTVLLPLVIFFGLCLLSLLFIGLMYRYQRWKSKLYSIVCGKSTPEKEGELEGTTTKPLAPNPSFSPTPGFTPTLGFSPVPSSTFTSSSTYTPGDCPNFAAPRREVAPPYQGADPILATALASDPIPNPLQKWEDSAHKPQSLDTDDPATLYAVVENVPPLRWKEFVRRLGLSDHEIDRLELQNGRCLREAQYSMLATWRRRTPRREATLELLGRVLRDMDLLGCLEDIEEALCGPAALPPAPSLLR
The assay is described as follows: cell-based or functional assay.
For B1, the “IC50 (read off the curve), inhibition of TNF-induced IL-8 secretion of HeLa cells” value is around 10 nM.

Turning to B23, the “IC50 (read off the curve), inhibition of TNF-induced IL-8 secretion of HeLa cells” value is around 5 nM.

In the next assay the target is T3, human serum albumin. Put plainly: phage ELISA on HSA, purified phage, 1/3 dilution series.
Experimental: as §3
Regarding B8, the “phage number, +Heat” value stood at 1e+10 phage and the “phage number, -Heat” value is 1.5e+08 phage.

With B9, the “phage number, +Heat” value stood at 9.75e+09 phage and the “phage number, -Heat” value was found to be 2.1e+07 phage.

With B17, the “phage number, +Heat” value was 1e+10 phage and the “phage number, -Heat” value amounted to 1.3e+09 phage.

Regarding B10, the “phage number, +Heat” value came out at 1e+10 phage and the “phage number, -Heat” value was 5.7e+08 phage.

On to B11, for which the “phage number, +Heat” value was 1e+10 phage and the “phage number, -Heat” value was determined as 1e+10 phage.

Turning to B12, the “phage number, +Heat” value was found to be 1e+10 phage and the “phage number, -Heat” value worked out at 5.5e+07 phage.
